T1: Pseudomonas exotoxin A (PEx), P11439
T1 chain: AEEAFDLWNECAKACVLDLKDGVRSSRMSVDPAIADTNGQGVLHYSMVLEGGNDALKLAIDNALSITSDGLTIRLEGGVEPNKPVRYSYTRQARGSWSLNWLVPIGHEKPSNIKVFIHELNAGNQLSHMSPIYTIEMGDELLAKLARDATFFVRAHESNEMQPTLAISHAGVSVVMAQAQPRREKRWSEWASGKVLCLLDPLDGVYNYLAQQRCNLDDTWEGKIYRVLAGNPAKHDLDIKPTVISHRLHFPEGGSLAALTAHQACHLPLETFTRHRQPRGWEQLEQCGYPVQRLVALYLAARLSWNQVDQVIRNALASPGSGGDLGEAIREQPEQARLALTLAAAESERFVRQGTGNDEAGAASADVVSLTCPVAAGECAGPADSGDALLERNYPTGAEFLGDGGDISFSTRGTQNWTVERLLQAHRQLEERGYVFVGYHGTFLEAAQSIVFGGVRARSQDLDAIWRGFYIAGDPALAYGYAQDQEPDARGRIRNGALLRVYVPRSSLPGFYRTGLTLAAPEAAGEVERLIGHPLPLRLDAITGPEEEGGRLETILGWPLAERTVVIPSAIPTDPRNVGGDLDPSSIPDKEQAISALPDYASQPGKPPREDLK

B1: Recombinant human PC7 (protein)
chain: SVHFNDPKYPQQWHLNNRRSPGRDINVTGVWERNVTGRGVTVVVVDDGVEHTIQDIAPNYSPEGSYDLNSNDPDPMPHPDVENGNHHGTRCAGEIAAVPNNSFCAVGVAYGSRIAGIRVLDGPLTDSMEAVAFNKHYQINDIYSCSWGPDDDGKTVDGPHQLGKAALQHGVIAGRQGFGSIFVVASGNGGQHNDNCNYDGYANSIYTVTIGAVDEEGRMPFYAEECASMLAVTFSGGDKMLRSIVTTDWDLQKGTGCTEGHTGTSAAAPLAAGMIALMLQVRPCLTWRDVQHIIVFTATRYEDRRAEWVTNEAGFSHSHQHGFGLLNAWRLVNAAKIWTSVPYLASYVSPVLKENKAIPQSPRSLEVLWNVSRMDLEMSGLKTLEHVAVTVSITHPRRGSLELKLFCPSGMMSLIGAPRSMDSDPNGFNDWTFSTVRCWGERARGTYRLVIRDVGDESFQVGILRQWQLTLYGSVWSAVDIRDRQRLLESAMSGKYLHDDFALPCPPGLKIPEEDGYTITPNTLKT
B2: Recombinant rat PACE4 (protein)
chain: QARSDSLYFNDPIWSNMWYMHCADKNSRCRSEMNVQAAWKRGYTGKNVVVTILDDGIERNHPDLAPNYDSYASYDVNGNDYDPSPRYDASNENKHGTRCAGEVAASANNSYCIVGIAYNAKIGGIRMLDGDVTDVVEAKSLGIRPNYIDIYSASWGPDDDGKTVDGPGRLAKQAFEYGIKKGRQGLGSIFVWASGNGGREGDHCSCDGYTNSIYTISVSSTTENGHKPWYLEECASTLATTYSSGAFYERKIVTTDLRQRCTDGHTGTSVSAPMVAGIIALALEANNQLTWRDVQHLLVKTSRPAHLKASDWKVNGAGHKVSHLYGFGLVDAEALVLEARKWTAVPSQHMCVATADKRPRSIPVVQVLRTTALTNACADHSDQRVVYLEHVVVRISISHPRRGDLQIHLISPSGTKSQLLAKRLLDFSNEGFTNWEFMTVHCWGEKAEGEWTLEVQDIPSQVRNPEKQGKLKEWSLILYGTAEHPYRTFSSHQSRSRMLELSVPEQEPLKAEGPPPQAETPEEEEEYTGVCHPECGDKGCDGPSADQCLNCVHFSLGNSKTNRKCVSECPLGYFGDTAARRCRRCHKGCETCTGRSPTQCLSCRRGFYHHQETNTCVTLCPAGLYADESQRLCLRCHPSCQKCVDEPEKSTVCKEGFSLARGSCIPDCEPGTYFDSELIRCGECHHTCRTCVGPSREECIHCAKSFHFQDWKCVPACGEGFYPEEMPGLPHKVCRRCDENCLSCEGSSRNCSRCKAGFTQLGTSCITNHTCSNADETFCEMVKSNRLCERKLFIQFCCRTCLLAG
B3: Recombinant human PC5/6 (protein)
chain: DYDFSRAQSTYFNDPKWPSMWYMHCSDNTHPCQSDMNIEGAWKRGYTGKNIVVTILDDGIERTHPDLMQNYDALASCDVNGNDLDPMPRYDASNENKHGTRCAGEVAAAANNSHCTVGIAFNAKIGGVRMLDGDVTDMVEAKSVSFNPQHVHIYSASWGPDDDGKTVDGPAPLTRQAFENGVRMGRRGLGSVFVWASGNGGRSKDHCSCDGYTNSIYTISISSTAESGKKPWYLEECSSTLATTYSSGESYDKKIITTDLRQRCTDNHTGTSASAPMAAGIIALALEANPFLTWRDVQHVIVRTSRAGHLNANDWKTNAAGFKVSHLYGFGLMDAEAMVMEAEKWTTVPRQHVCVESTDRQIKTIRPNSAVRSIYKASGCSDNPNRHVNYLEHVVVRITITHPRRGDLAIYLTSPSGTRSQLLANRLFDHSMEGFKNWEFMTIHCWGERAAGDWVLEVYDTPSQLRNFKTPGKLKEWSLVLYGTSVQPYSPTNEFPKVERFRYSRVEDPTDDYGTEDYAGPCDPECSEVGCDGPGPDHCNDCLHYYYKLKNNTRICVSSCPPGHYHADKKRCRKCAPNCESCFGSHGDQCMSCKYGYFLNEETNSCVTHCPDGSYQDTKKNLCRKCSENCKTCTEFHNCTECRDGLSLQGSRCSVSCEDGRYFNGQDCQPCHRFCATCAGAGADGCINCTEGYFMEDGRCVQSCSISYYFDHSSENGYKSCKKCDISCLTCNGPGFKNCTSCPSGYLLDLGMCQMGAICKDATEESWAEGGFCMLVKKNNLCQRKVLQQLCCKTCTFQG
B4: Recombinant human PC4 (protein)
chain: SVVVPTDPWFSKQWYMNSEAQPDLSILQAWSQGLSGQGIVVSVLDDGIEKDHPDLWANYDPLASYDFNDYDPDPQPRYTPSKENRHGTRCAGEVAAMANNGFCGVGVAFNARIGGVRMLDGTITDVIEAQSLSLQPQHIHIYSASWGPEDDGRTVDGPGILTREAFRRGVTKGRGGLGTLFIWASGNGGLHYDNCNCDGYTNSIHTLSVGSTTQQGRVPWYSEACASTLTTTYSSGVATDPQIVTTDLHHGCTDQHTGTSASAPLAAGMIALALEANPFLTWRDMQHLVVRASKPAHLQAEDWRTNGVGRQVSHHYGYGLLDAGLLVDTARTWLPTQPQRKCAVRVQSRPTPILPLIYIRENVSACAGLHNSIRSLEHVQAQLTLSYSRRGDLEISLTSPMGTRSTLVAIRPLDVSTEGYNNWVFMSTHFWDENPQGVWTLGLENKGYYFNTGTLYRYTLLLYGTAEDMTARPTGPQVTSSACVQRDTEGLCQACDGPAYILGQLCLAYCPPRFFNHTRLVTAGPGHTAAPALRVCSSCHASCYTCRGGSPRDCTSCPPSSTLDQQQGSCMGPTTPDSRPRLRAAACPHHRCPAS

Columns and labels:
[1] = molecular target: Anthrax Protective Antigen-83 (PA83), P13423
Chain of Anthrax Protective Antigen-83 (PA83), P13423 (P13423 whole entry, looked up): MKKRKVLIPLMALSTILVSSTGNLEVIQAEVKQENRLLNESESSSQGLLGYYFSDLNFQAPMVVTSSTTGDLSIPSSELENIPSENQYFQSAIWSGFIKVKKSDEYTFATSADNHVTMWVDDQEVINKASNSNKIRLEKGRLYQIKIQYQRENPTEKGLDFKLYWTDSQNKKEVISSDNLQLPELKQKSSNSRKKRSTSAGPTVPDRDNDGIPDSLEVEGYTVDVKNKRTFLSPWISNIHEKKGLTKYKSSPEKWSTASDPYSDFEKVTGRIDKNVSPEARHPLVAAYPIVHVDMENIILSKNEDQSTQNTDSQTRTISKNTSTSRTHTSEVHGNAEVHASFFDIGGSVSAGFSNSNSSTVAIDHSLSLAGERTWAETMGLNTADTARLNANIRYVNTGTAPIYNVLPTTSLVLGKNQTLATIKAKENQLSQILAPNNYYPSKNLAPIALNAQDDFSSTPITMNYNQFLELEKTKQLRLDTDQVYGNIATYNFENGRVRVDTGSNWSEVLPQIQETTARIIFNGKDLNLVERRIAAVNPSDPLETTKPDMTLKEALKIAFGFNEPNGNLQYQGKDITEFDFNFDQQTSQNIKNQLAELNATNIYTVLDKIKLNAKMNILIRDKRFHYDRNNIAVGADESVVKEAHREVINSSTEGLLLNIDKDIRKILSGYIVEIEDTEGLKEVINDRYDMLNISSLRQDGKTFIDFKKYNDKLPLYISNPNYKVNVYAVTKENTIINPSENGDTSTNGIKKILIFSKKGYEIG

[2] = molecular target: recombinant H5 precursor (HA0)
[3] = molecular target: T1, Pseudomonas exotoxin A (PEx), P11439

Protein	in vitro cleavage of biotin-labeled substrate (Western blot) [1]	in vitro cleavage of biotin-labeled substrate (Western blot) [2]	in vitro cleavage at pH 5.5 (Western blot) [3]
B1	PACE4 and PC7 were less effective	other PCs were less efficient	–
B2	PACE4 and PC7 were less effective	other PCs were less efficient	–
B3	–	efficiently cleaved	readily processed
B4	–	other PCs were less efficient	readily processed
